The text below walks through data of patent US20180273626A1.

Experiment [1] concerns the target FcεRIα (human) (UniProt P12319). Nature of the experiment: SPR; insect derived. (In general: Surface plasmon resonance follows binding to a sensor surface in real time, without labels.)
For experiment [2] the target is unchanged. In words: SPR; mammalian derived.

FcεRIα (human), sequence (P12319 26-201): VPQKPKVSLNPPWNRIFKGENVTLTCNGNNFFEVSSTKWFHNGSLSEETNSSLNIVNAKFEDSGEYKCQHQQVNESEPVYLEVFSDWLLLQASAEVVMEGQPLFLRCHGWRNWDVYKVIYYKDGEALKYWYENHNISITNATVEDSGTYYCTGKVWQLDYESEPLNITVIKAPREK
IgE-Fc3-4, sequence (P01854 209-426): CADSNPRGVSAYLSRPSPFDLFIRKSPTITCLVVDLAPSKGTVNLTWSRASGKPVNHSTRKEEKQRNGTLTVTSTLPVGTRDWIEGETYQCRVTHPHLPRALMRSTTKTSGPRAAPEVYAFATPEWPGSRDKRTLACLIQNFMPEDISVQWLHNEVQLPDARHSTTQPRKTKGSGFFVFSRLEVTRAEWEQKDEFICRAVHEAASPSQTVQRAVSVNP

The term Kd denotes a measure of binding affinity in units of concentration. Lower therefore signals higher affinity. For the substance IgE-Fc3-4 (from UniProt P01854 209-426), the Kd worked out at 0.66 nM in experiment [1] and 0.933 nM in experiment [2].
